Reference: paper PMC11329518

Experiments:
Assay in all cases: fluorescence polarisation
[1] = molecular target: 5'FAM-labeled peptide H3K9me1
[2] = molecular target: 5'FAM-labeled peptide H3 (1-21)
[3] = molecular target: 5'FAM-labeled peptide H3K9me2

Kd [1]: 21.2 µM
Kd [2]: 4.73 µM
Kd [3]: 40.5 µM
B1: GST-ARID1-His (natural protein)
chain: MAGWSMVADEDAVDYSKTPKSLDANRSPESVNPESTGFEKKIKELISLFRPLLDSFLAEFCSADGFLPLPAMTGEGRTVDLFNLFLNVTHKGGFDAVSENGSWDEVVQESGLESYDSASAKLIYVKYLDAFGRWLNRVVAGDTDVSSVELSGISDALVARLNGFLSEVKKKYELRKGRPAKELGAELKWFISKTKRRYDKHHVGKESASNDAVKEFQGSKLAERRLEQIMILESVTQECSSPGKRKRECPLETLKWLSDVAKDPCDPSLGIVPDRSEWVSYGSEEPWKQLLLFRASRTNNDSACEKTWQKVQKMHPCLYDDSAGASYNLRERLSYEDYKRGKTGNGSDIGSSDEEDRPCALVGSKFQAKVPEWTGITPESDSKWLGTRIWPLTKEQTKANLLIERDRIGKGRQDPCGCHNPGSIECVKFHITAKRDKLKLELGPAFYMWCFDVMGECTLQYWTDLELKKIKSLMSSPPSLSPAFIHQAKMILPSKSRGKIVSYFYNVTLLQYRASQSRITPHDIDSDTDQIFLRATENENPAPEANTFQKPALLSPNKKRCR
